Results from US11278600B2, “Human alpha-galactosidase variants” (Codexis, Inc., priority 2014, dated 2022).

Experiments:
Assay type in all cases: biochemical
[1] = HTP-analysis of supernatants pretreated with base (MUGal hydrolysis); conditions: activity of the variant/activity of Rd4BB (SEQ ID NO: 15); challenge at pH 9.65
Summary of the method: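 GLA variants were secreted by transformed INVSc1 yeast grown 66-84 h at 30° C. Supernatants were exposed to neutral-to-basic buffers (pH 7.0-9.7) at 37° C for 1-18 h, then assayed with MUGal in acidic citrate/McIlvaine buffer, with fluorescence read after quenching.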

[2] = HTP-analysis of yeast culture supernatants, no challenge (MUGal hydrolysis); conditions: activity of the variant/activity of Rd4BB (SEQ ID NO: 15)
Summary of the method: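 Activity read as 4-methylumbelliferyl α-D-galactopyranoside hydrolysis: fluorescence (355/448 nm) after sodium carbonate stop, following 30-180 min at 37° C with 2 mM MUGal stock at pH 4.6–4.8. Enzyme source is unchallenged culture supernatant of INVSc1 yeast expressing GLA variants, grown 66-84 h at 30° C.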

[3] = HTP-analysis of supernatants pretreated with acid (MUGal hydrolysis); conditions: activity of the variant/activity of Rd4BB (SEQ ID NO: 15); challenge at pH 3.7
Summary of the method: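 Fluorescence of MUGal hydrolysis (Ex. 355 nm, Em. 448 nm) is read after sodium carbonate quench. The enzyme source is INVSc1 yeast culture supernatant, first exposed to pH 3.3-4.3 McIlvaine buffer at 37° C. for 1-3 h, then reacted at pH 4.8 for 30-180 minutes.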

Molecule	Relative Activity of GLA Variants After Challenge at pH 9.65 [1]	Relative Activity of GLA Variants After No Challenge (NC) [2]	Relative Activity of GLA Variants After Challenge at pH 3.7 [3]
448 (protein, Synthetic Polypeptide sequence of Variant No. 448 of mature Human GLA) LDNGLARTPTMGWLHWERFMCNLDCQEEPDSCISEKLFMEMAERMVSEGWKDAGYEYLCIDDCWMAPQRDSEGRLQADPQRFPHGIRQLANYVHSKGLKLGIYADVGNKTCAGFPGSFGYYDIDAQTFADWGVDLLKFDGCYCDSLENLADGYKHMSLALNRTGRSIVYSCEWPLYMWPFQKPNYTEIRQYCNHWRNFADIDDSWKSIKSILDWTSRNQERIVDVAGPGGWNDPDMLVIGNFGLSWDQQVTQMALWAIMAAPLFMSNDLQHISPQAKALLQDKDVIAINQDPLGKQGYQLRKGDNFEVWERPLSGDAWAVAIINRQEIGGPRSYTIPVASLGKGVACNPACFITQLLPVKRQLGFYNWTSRLKSHINPTGTVLLQLENTMQMSLKDLL	− (<0.5 relative activity over Rd4BB (SEQ ID NO: 15))	+ (0.5 to 1.5 relative activity over Rd4BB (SEQ ID NO: 15))	− (<0.5 relative activity over Rd4BB (SEQ ID NO: 15))
449 (protein, Synthetic Polypeptide sequence of Variant No. 449 of mature Human GLA) LDNGLARTPTMGWLHWERFMCNLDCQEEPDSCISEKLFMEMAERMVSEGWKDAGYEYLCIDDCWMAPQRDSEGRLQADPQRFPHGIRQLANYVHSKGLKLGIYADVGNKTCAGFPGSFGYYDIDAQTFADWGVDLLKFDGCYCDSLENLADGYKHMSLALNRTGRSIVYSCEWPLYMWPFQKPNYTEIRQYCNHWRNFADIDDSWKSIKSILDWTSRNQERIVDVAGPGGWNDPDMLVIGNFGLSWDQQVTQMATWAIMAAPLFMSNDLRHISPQAKALLQDKDVIAINQDPLGKQGYQLRKGDNFEVWERPLSGDAWAVAIINRQEIGGPRSYTIPVASLGKGVACNPACFITQLLPVKRQLGFYNWTSRLKSHINPTGTVLLQLENTMQMSLKDLL	− (<0.5 relative activity over Rd4BB (SEQ ID NO: 15))	+ (0.5 to 1.5 relative activity over Rd4BB (SEQ ID NO: 15))	++ (>1.5 to 2.5 relative activity over Rd4BB (SEQ ID NO: 15))
450 (protein, Synthetic Polypeptide sequence of Variant No. 450 of mature Human GLA) LDNGLARTPTMGWLHWERFMCNLDCQEEPDSCISEKLFMEMAERMVSEGWKDAGYEYLCIDDCWMAPQRDSEGRLQADPQRFPHGIRQLANYVHSKGLKLGIYADVGNKTCAGFPGSFGYYDIDAQTFADWGVDLLKFDGCYCDSLENLADGYKHMSLALNRTGRSIVYSCEWPLYMWPFQKPNYTEIRQYCNHWRNFADIDDSWKSIKSILDWTSRNQERIVDVAGPGGWNDPDMLVIGNFGLSWDQQVTQMALWAMMAAPLFMSNDLRHISPQAKALLQDKDVIAINQDPLGKQGYQLRKGDNFEVWERPLSGDAWAVAIINRQEIGGPRSYTIPVASLGKGVACNPACFITQLLPVKRQLGFYNWTSRLKSHINPTGTVLLQLENTMQMSLKDLL	− (<0.5 relative activity over Rd4BB (SEQ ID NO: 15))	+ (0.5 to 1.5 relative activity over Rd4BB (SEQ ID NO: 15))	++ (>1.5 to 2.5 relative activity over Rd4BB (SEQ ID NO: 15))
451 (protein, Synthetic Polypeptide sequence of Variant No. 451 of mature Human GLA) LDNGLARTPTMGWLHWERFMCNLDCQEEPDSCISEKLFMEMAERMVSEGWKDAGYEYLCIDDCWMAPQRDSEGRLQADPQRFPHGIRQLANYVHSKGLKLGIYADVGNKTCAGFPGSFGYYDIDAQTFADWGVDLLKFDGCYCDSLENLADGYKHMSLALNRTGRSIVYSCEWPLYMWPFQKPNYTEIRQYCNHWRNFADIDDSWKSIKSILDWTSRNQERIVDVAGPGGWNDPDMLVIGNFGLSWDQQVTQMALWAIVAAPLFMSNDLRHISPQAKALLQDKDVIAINQDPLGKQGYQLRKGDNFEVWERPLSGDAWAVAIINRQEIGGPRSYTIPVASLGKGVACNPACFITQLLPVKRQLGFYNWTSRLKSHINPTGTVLLQLENTMQMSLKDLL	− (<0.5 relative activity over Rd4BB (SEQ ID NO: 15))	+ (0.5 to 1.5 relative activity over Rd4BB (SEQ ID NO: 15))	++ (>1.5 to 2.5 relative activity over Rd4BB (SEQ ID NO: 15))
452 (protein, Synthetic Polypeptide sequence of Variant No. 452 of mature Human GLA) LDNGLARTPTMGWLHWERFMCNLDCQEEPDSCISEKLFMEMAERMVSEGWKDAGYEYLCIDDCWMAPQRDSEGRLQADPQRFPHGIRQLANYVHSKGLKLGIYADVGNKTCAGFPGSFGYYDIDAQTFADWGVDLLKFDGCYCDSLENLADGYKHMSLALNRTGRSIVYSCEWPLYMWPFQKPNYTEIRQYCNHWRNFADIDDSWKSIKSILDWTSRNQERIVDVAGPGGWNDPDMLVIGNFGLSWDQQVTQMALWAIMAAPLFMSNDLRRISPQAKALLQDKDVIAINQDPLGKQGYQLRKGDNFEVWERPLSGDAWAVAIINRQEIGGPRSYTIPVASLGKGVACNPACFITQLLPVKRQLGFYNWTSRLKSHINPTGTVLLQLENTMQMSLKDLL	+ (0.5 to 1.5 relative activity over Rd4BB (SEQ ID NO: 15))	+ (0.5 to 1.5 relative activity over Rd4BB (SEQ ID NO: 15))	++ (>1.5 to 2.5 relative activity over Rd4BB (SEQ ID NO: 15))
453 (protein, Synthetic Polypeptide sequence of Variant No. 453 of mature Human GLA) LDNGLARTPTMGWLHWERFMCNLDCQEEPDSCISEKLFMEMAERMVSEGWKDAGYEYLCIDDCWMAPQRDSEGRLQADPQRFPHGIRQLANYVHSKGLKLGIYADVGNKTCAGFPGSFGYYDIDAQTFADWGVDLLKFDGCYCDSLENLADGYKHMSLALNRTGRSIVYSCEWPLYMWPFQKPNYTEIRQYCNHWRNFADIDDSWKSIKSILDWTSRNQERIVDVAGPGGWNDPDMLVIGNFGLSWDQQVTQMALWAIMAAPLFMSNDLLHISPQAKALLQDKDVIAINQDPLGKQGYQLRKGDNFEVWERPLSGDAWAVAIINRQEIGGPRSYTIPVASLGKGVACNPACFITQLLPVKRQLGFYNWTSRLKSHINPTGTVLLQLENTMQMSLKDLL	− (<0.5 relative activity over Rd4BB (SEQ ID NO: 15))	+ (0.5 to 1.5 relative activity over Rd4BB (SEQ ID NO: 15))	− (<0.5 relative activity over Rd4BB (SEQ ID NO: 15))
454 (protein, Synthetic Polypeptide sequence of Variant No. 454 of mature Human GLA) LDNGLARTPTMGWLHWERFMCNLDCQEEPDSCISEKLFMEMAERMVSEGWKDAGYEYLCIDDCWMAPQRDSEGRLQADPQRFPHGIRQLANYVHSKGLKLGIYADVGNKTCAGFPGSFGYYDIDAQTFADWGVDLLKFDGCYCDSLENLADGYKHMSLALNRTGRSIVYSCEWPLYMWPFQKPNYTEIRQYCNHWRNFADIDDSWKSIKSILDWTSRNQERIVDVAGPGGWNDPDMLVIGNFGLSWDQQVTQMALWAIMAAPLFMSNDLRHISPQAKALLQDKDVIAINQDPLGKQGYQLRKGDNFEVWERPLSGDAWAVAIINRQEIGGPRSYTIPVASLGKGVACNPACFITQLLPVKRQLGFYNWTSRLKSHINPTGTVLLQLENTPQMSLKDLL	+ (0.5 to 1.5 relative activity over Rd4BB (SEQ ID NO: 15))	+ (0.5 to 1.5 relative activity over Rd4BB (SEQ ID NO: 15))	++ (>1.5 to 2.5 relative activity over Rd4BB (SEQ ID NO: 15))
455 (protein, Synthetic Polypeptide sequence of Variant No. 455 of mature Human GLA) LDNGLARTPTMGWLHWERFMCNLDCQEEPDSCISEKLFMEMAERMVSEGWKDAGYEYLCIDDCWMAPQRDSEGRLQADPQRFPHGIRQLANYVHSKGLKLGIYADVGNKTCAGFPGSFGYYDIDAQTFADWGVDLLKFDGCYCDSLENLADGYKHMSLALNRTGRSIVYSCEWPLYMWPFQKPNYTEIRQYCNHWRNFADIDDSWKSIKSILDWTSRNQERIVDVAGPGGWNDPDMLVIGNFGLSWDQQVTQMALWAIMAAPLFMSNDLRHISPQAKALLQDKDVIAINQDPLGKQGYQLRKGDNFEVWERPLSGDAWAVAIINRQEIGGPRSYTIPVASLGKGVACNPACFITQLLPVKRQLGFYNWTSRLKSHINPTGTVLLQLENTMQDSLKDLL	+ (0.5 to 1.5 relative activity over Rd4BB (SEQ ID NO: 15))	+ (0.5 to 1.5 relative activity over Rd4BB (SEQ ID NO: 15))	+ (0.5 to 1.5 relative activity over Rd4BB (SEQ ID NO: 15))
